Test results: patent US20220089678A1

Molecular target: human BCMA on cells (human) (UniProt Q02223)
Assay: cell-based or functional assay

Chain of human BCMA on cells (human) (Q02223 whole entry): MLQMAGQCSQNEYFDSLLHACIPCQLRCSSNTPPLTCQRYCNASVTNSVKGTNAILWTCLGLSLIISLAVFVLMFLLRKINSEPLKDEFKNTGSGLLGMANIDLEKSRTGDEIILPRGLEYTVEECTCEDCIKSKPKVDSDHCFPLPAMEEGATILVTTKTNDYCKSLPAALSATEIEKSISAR

B1: CAR with OX40-CD3z cytoplasmic domain of SEQ ID: 105 (protein, part only; not given: anti-BCMA scFv, hinge, transmembrane, part only)
chain, part: RRDQRLPPDAHKPPGGGSFRTPIQEEQADAHSTLAKIRVKFSRSADAPAYQQGQNQLYNELNLGRREEYDVLDKRRGRDPEMGGKPRRKNPQEGLYNELQKDKMAEAYSEIGMKGERRRGKGHDGLYQGLSTATKDTYDALHMQALPPR
  Killing (% killed), Effector:target ratio of 1:10: 46%
